In US20120244131:

System: T1, SC_RAG single-chain meganuclease (I-CreI derived) (artificial sequence)
T1 sequence: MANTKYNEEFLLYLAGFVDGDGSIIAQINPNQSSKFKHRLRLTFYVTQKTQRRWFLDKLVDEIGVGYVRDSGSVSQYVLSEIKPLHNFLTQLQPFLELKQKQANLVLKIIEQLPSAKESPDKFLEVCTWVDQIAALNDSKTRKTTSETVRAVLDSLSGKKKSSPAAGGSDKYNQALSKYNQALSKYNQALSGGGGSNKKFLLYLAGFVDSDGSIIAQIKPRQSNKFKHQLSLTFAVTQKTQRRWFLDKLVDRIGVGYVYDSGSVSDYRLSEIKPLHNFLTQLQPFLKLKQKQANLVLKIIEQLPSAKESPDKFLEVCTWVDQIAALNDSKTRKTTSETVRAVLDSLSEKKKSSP
Experiment: cell_activity
Details: endogenous locus in 293H, siRNA control AS, deep sequencing, +/-0.13

endogenous human RAG1 locus target of SC_RAG
activity (% NHEJ mutagenesis): 0.66
